Test results as given in article PMC10397247.

Key:
Experiment in all cases: two-hybrid library CCNG1;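 also: natural log of median RNA to DNA barcode read ratio; higher means stronger binding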
[1] = molecular target: T1, 4H145-bA; settings: mean of both orientations
T1 chain: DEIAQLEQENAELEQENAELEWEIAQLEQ

[2] = molecular target: T2, 4H2619-bA
T2 chain: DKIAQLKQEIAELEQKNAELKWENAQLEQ

[3] = molecular target: T3, 4H2691-bA
T3 chain: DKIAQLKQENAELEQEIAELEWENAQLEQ

[4] = molecular target: T4, 4H3070-bA; settings: mean of both orientations
T4 chain: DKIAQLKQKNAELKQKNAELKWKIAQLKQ

[5] = molecular target: T5, 4H342-bA
T5 chain: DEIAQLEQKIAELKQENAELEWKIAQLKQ

[6] = molecular target: T6, 4H3632-bA
T6 chain: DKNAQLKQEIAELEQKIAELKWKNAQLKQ

[7] = molecular target: T7, 4H496-bA
T7 chain: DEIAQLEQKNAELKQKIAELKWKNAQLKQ

Which results are given for DEIAQLEQENAELEQENAELEWEIAQLEQ [4H145-bA]?
interaction score [1]: -0.795; interaction score [2]: -0.672; interaction score [3]: -0.624; interaction score [4]: 2.5; interaction score [5]: -1.12; interaction score [6]: -1.06; interaction score [7]: -1.06
